Columns and labels:
CSF-1R-mFc [1] = target: T1, CSF-1R-mFc (human, UniProt P07333 20-512, limits assumed); experiment: competition ELISA: CSF1-His coated, CSF-1R-mFc 0.15 μg/ml premixed with antibody
T1 construct: not shown: mouse Fc (mFc)

CSF-1R-mFc [2] = target: T1, CSF-1R-mFc; experiment: competition ELISA: human IL-34 coated, CSF-1R-mFc 0.15 μg/ml premixed with antibody
[3] = target: CSF-1R on CSF-1R/SRE-Luc/HEK293 reporter cells (UniProt P07333 20-972, limits assumed); experiment: cell-based or functional assay
[4] = target: T2, CSF-1R on rhCSF-1R-CHO cells (human, UniProt P07333 20-972); experiment: flow cytometry on rhCSF-1R-CHO cells, FITC goat anti-human
T2 construct: whole, on cells; also called 细胞表面CSF-1R; CSF-1R-CHO细胞

[5] = target: T3, 人CSF-1R-his重组蛋白 (human CSF-1R-his recombinant protein) (human, UniProt P07333 20-512, limits assumed); experiment: BLI (ForteBio), antibody on AHC probe, CSF-1R-his 60 nM, 1:1 fit
T3 construct: Analyte of the ForteBio assay, 60 nM; also called CD115; M-CSF-R; not shown: His tag
T3 sequence (P07333 20-512 limits assumed): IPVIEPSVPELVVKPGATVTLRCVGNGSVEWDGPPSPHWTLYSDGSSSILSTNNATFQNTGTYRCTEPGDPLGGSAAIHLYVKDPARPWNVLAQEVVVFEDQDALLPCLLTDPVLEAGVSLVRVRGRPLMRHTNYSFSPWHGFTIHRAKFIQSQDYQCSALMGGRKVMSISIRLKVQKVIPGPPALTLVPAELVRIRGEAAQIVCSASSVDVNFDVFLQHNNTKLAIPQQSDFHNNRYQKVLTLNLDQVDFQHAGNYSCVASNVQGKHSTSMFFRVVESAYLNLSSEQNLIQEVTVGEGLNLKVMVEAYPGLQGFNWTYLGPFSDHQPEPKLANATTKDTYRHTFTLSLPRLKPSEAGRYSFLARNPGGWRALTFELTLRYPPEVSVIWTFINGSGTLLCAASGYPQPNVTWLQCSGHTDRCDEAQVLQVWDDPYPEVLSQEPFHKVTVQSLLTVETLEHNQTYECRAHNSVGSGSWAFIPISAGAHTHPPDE

Chain of CSF-1R on CSF-1R/SRE-Luc/HEK293 reporter cells (P07333 20-972 limits assumed): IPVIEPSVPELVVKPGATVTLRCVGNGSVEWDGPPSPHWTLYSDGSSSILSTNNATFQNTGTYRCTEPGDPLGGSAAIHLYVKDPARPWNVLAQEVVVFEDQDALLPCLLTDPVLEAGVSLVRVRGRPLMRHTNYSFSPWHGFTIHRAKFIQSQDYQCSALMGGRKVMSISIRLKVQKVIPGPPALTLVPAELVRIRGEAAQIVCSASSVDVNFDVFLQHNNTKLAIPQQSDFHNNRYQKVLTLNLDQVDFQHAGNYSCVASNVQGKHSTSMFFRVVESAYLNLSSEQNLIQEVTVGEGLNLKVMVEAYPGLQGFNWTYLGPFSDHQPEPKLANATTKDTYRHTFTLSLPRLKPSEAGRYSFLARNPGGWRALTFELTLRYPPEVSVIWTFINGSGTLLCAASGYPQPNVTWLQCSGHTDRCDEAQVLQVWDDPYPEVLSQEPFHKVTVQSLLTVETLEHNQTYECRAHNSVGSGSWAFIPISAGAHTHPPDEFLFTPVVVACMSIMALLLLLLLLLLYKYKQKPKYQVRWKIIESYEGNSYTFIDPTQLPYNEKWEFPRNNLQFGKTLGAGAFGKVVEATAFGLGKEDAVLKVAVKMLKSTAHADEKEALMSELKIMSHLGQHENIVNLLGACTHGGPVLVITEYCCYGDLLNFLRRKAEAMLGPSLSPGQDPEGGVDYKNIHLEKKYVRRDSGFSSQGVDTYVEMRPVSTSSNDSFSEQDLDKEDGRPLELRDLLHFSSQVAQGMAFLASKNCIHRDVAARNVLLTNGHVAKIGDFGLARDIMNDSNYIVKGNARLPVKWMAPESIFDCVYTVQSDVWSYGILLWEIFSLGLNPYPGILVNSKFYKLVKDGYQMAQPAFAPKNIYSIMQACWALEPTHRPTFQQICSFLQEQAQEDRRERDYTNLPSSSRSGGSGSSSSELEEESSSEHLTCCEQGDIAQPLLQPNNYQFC
T1 sequence (P07333 20-512 limits assumed): as the sequence (P07333 20-512 limits assumed) above
T2 sequence (P07333 20-972): as the sequence (P07333 20-972 limits assumed) above

B1: Cabiralizumab (FPA-008) (antibody, V domains shown)
VH: QVQLVQSGAEVKKPGSSVKVSCKASGYTFTDNYMIWVRQAPGQGLEWMGDINPYNGGTTFNQKFKGRVTITADKSTSTAYMELSSLRSEDTAVYYCARESPYFSNLYVMDYWGQGTLVTVSS
VL: EIVLTQSPATLSLSPGERATLSCKASQSVDYDGDNYMNWYQQKPGQAPRLLIYAASNLESGIPARFSGSGSGTDFTLTISSLEPEDFAVYYCHLSNEDLSTFGGGTKVEIK
notes: Control antibody, synthesised after CN107011438 A; also called Cabirlizumab; 对照抗体
- IC50 (CSF-1R-mFc [1]): 0.3 nM
- IC50 (CSF-1R-mFc [2]): ~0.752 nM
- IC50, inhibition of CSF-1-stimulated (7.2 ng/ml) SRE-Luc reporter in CSF-1R/SRE-Luc/HEK293 cells [3]: 0.21 µg/mL
- IC50, inhibition of IL-34-stimulated (85.06 ng/ml) SRE-Luc reporter in CSF-1R/SRE-Luc/HEK293 cells [3]: 0.34 µg/mL
- EC50 [4]: 0.109 µg/mL
- Kd [5]: 2.38 nM
- koff [5]: 0.000228 s⁻¹
- kon [5]: 95800 M⁻¹ s⁻¹

Reference: CN117886935A (BEIJING KENUO XINCHENG TECH CO LTD, dated 2024)
